In article PMC5034536, “Molecular insights into substrate recognition and catalytic mechanism of the chaperone and FKBP peptidyl-prolyl isomerase SlyD” (BMC Biology, 2016):
Like-named read-outs stand apart in the source and are kept apart here. No end group written: not given here.

Assays:
[1] = target: full-length SlyD from Thermus thermophilus (TtSlyDFL) (Thermus thermophilus)
[2] = target: full-length SlyD from Thermus thermophilus (TtSlyDFL) (Thermus thermophilus); remark: listed apart in the source

| Kd [1] | dH [1] | stoichiometry N [1] | Kd [2] | dH [2] | stoichiometry N [2] | Binder |
| --- | --- | --- | --- | --- | --- | --- |
| 158 µM | -14.6 kcal/mol | 1.13 |  |  |  | VGSNSYPHKYNNYEG-NH2 [T1 peptide] |
| 133 µM | -0.4 kcal/mol | 1.44 |  |  |  | SGLVPRGS-NH2 [SlpA linker peptide] |
|  |  |  | 163 µM | -5.1 kcal/mol | 1.29 | WNPKMKP-NH2 [S2-short8 peptide] |
